Values quoted from earlier work, collected in paper PMC10953113 (Biomedicine & pharmacotherapy = Biomedecine & …, 2024).

Conditions: no reference given

For Arginine vasopressin [AVP], the “half-life (T1/2)” value is listed as ~ 10 min.
